Broadly, the Kd is the equilibrium constant for the complex coming apart.

The source of these data is patent US20210277119A1 (MARENGO THERAPEUTICS, published 2021).

Assay [1] has as its target T1, recombinant protein TCRVB 6-5 (human, UniProt A0A0K0K1A5 22-114, limits assumed, captured on a Biotin CAP sensor chip (biotinylated; site not stated)).
T1 construct: also called TCRVβ 6-5; TCRβ V6-5*01
T1 sequence (TCR beta): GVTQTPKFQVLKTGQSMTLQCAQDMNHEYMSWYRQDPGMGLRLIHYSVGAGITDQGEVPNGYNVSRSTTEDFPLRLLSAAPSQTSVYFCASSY
Nature of the assay: SPR, TCRVB 6-5 on Biotin CAP chip, compared with BJM0277. The method, then: (§1) TCRVB 6-5 at 5 ug/mL was immobilized on a Biotin CAP Series S Sensor Chip to 60 RU. A-H.52 was diluted to 50 nM and then serially diluted two fold. Association was 120 seconds, dissociation was 300 seconds. This assay was run in 1×HBS-EP+ Buffer pH 7.4 and 25 C. The data was fit using a 1:1 binding model. A-H.52 is a phage clones and is a monovalent scFv. A-H.52 has two mutations on CDRH1.
(§2) TCRVB 6-5 at 5 ug/mL was immobilized on a Biotin CAP Series S Sensor Chip to 60 RU. A-H.53 was diluted to 50 nM and then serially diluted two fold. Association was 120 seconds, dissociation was 300 seconds. This assay was run in 1×HBS-EP+ Buffer pH 7.4 and 25 C. The data was fit using a 1:1 binding model. A-H.53 (phage clone) affinity is in the pM range (Table 16).
(§3) TCRVB 6-5 at 5 ug/mL was immobilized on a Biotin CAP Series S Sensor Chip to 60 RU. A-H.54 was diluted to 50 nM and then serially diluted two fold. Association was 120 seconds, dissociation was 300 seconds. This assay was run in 1×HBS-EP+ Buffer pH 7.4 and 25 C. The data was fit using a 1:1 binding model.
In general terms: SPR reads the build-up and loss of mass on a sensor chip optically.

Assay [2] concerns the target T1, recombinant protein TCRVB 6-5. Nature of the assay: SPR, TCRVB 6-5 captured on Biotin CAP chip, analyte from 50 nM in two-fold dilutions, 1:1 model, 25 C. The method, then:
as §1, §2, §3

B1: A-H.52 (scFv)
scFv: QVQLVQSGAEVKKPGSSVKVSCKASGYSFTLGYIHWVRQAPGQGLEWMGWFFPGSGNIKYNEKFKGRVTITADTSTSTAYMELSSLRSEDTAVYYCAGSYYSYDVLDYWGQGTTVTVSSGGGGSGGGGSGGGGSGGGGSDIQMTQSPSFLSASVGDRVTITCKASQNVGINVVWHQQKPGKAPKALIYSSSHRYSGVPSRFSGSGSGTEFTLTISSLQPEDFATYFCQQFKSYPLTFGQGTKLEIK
notes: Said to be a phage clone and a monovalent scFv; also called phage clone; monovalent scFv
Regarding B1, the “fold greater affinity than BJM0277” value in assay [1] worked out at 20 fold. For the same molecule, the equilibrium dissociation constant (Kd) in assay [2] was 1.76 nM.

B2: A-H.54 (scFv)
scFv: QVQLVQSGAEVKKPGSSVKVSCKASGYSFHNWYIHWVRQAPGQGLEWMGWFFPGSGNIKYNEKFKGRVTITADTSTSTAYMELSSLRSEDTAVYYCAGSYYSYDVLDYWGQGTTVTVSSGGGGSGGGGSGGGGSGGGGSDIQMTQSPSFLSASVGDRVTITCKASQNVGINVVWHQQKPGKAPKALIYSSSHRYSGVPSRFSGSGSGTEFTLTISSLQPEDFATYFCQQFKSYPLTFGQGTKLEIK
notes: Called a phage clone; also called phage clone
For B2, in assay [1], the “fold greater affinity than BJM0277” value is 17 fold. In addition, in assay [2], the Kd worked out at 2.22 nM.

B3: A-H.53 (scFv)
scFv: QVQLVQSGAEVKKPGSSVKVSCKASGYSFRLTYIHWVRQAPGQGLEWMGWFFPGSGNIKYNEKFKGRVTITADTSTSTAYMELSSLRSEDTAVYYCAGSYYSYDVLDYWGQGTTVTVSSGGGGSGGGGSGGGGSGGGGSDIQMTQSPSFLSASVGDRVTITCKASQNVGINVVWHQQKPGKAPKALIYSSSHRYSGVPSRFSGSGSGTEFTLTISSLQPEDFATYFCQQFKSYPLTFGQGTKLEIK
notes: as for B2
In the case of B3, in assay [1], the “fold greater affinity than BJM0277” value turned out to be 200 fold. The Kd in assay [2] amounted to 0.165 nM.
